From the supplement of paper PMC11246515
± gives the standard deviation of the averaged measurements.

Assay: total protein half-life in vivo (active degradation + dilution); higher = more stable protein
[1] = E. coli NCM3722 delta-clpP, growth: N-lim chemostat, doubling time 6 h
[2] = E. coli NCM3722 delta-hslV, growth: N-lim chemostat, doubling time 6 h
[3] = wild type E. coli NCM3722, growth: N-lim chemostat, doubling time 6 h
[4] = wild type E. coli NCM3722, growth: P-lim chemostat, doubling time 12 h
[5] = E. coli NCM3722 delta-clpP delta-lon delta-hslV, growth: N-lim chemostat, doubling time 6 h
[6] = E. coli NCM3722 delta-lon, growth: N-lim chemostat, doubling time 6 h
[7] = E. coli NCM3722 delta-smpB, growth: N-lim chemostat, doubling time 6 h
[8] = wild type E. coli NCM3722, growth: C-lim chemostat, doubling time 6 h
[9] = wild type E. coli NCM3722, growth: N-lim chemostat, doubling time 12 h
[10] = wild type E. coli NCM3722, growth: P-lim chemostat, doubling time 6 h
[11] = wild type E. coli NCM3722, growth: C-lim chemostat, doubling time 3 h
[12] = wild type E. coli NCM3722, growth: C-lim chemostat, doubling time 12 h

Row | Sequence | total protein half-life in vivo [1] | total protein half-life in vivo [2] | total protein half-life in vivo [3] | total protein half-life in vivo [4] | total protein half-life in vivo [5] | total protein half-life in vivo [6] | total protein half-life in vivo [7] | total protein half-life in vivo [8] | total protein half-life in vivo [9] | total protein half-life in vivo [10] | total protein half-life in vivo [11] | total protein half-life in vivo [12]
1 | MTTLTLVLTAVGSVLLLLFLVMKARMHAFLALMVVSMGAGLFSGMPLDKIAATMEKGMGGTLGFLAVVVALGAMFGKILHETGAVDQIAVKMLKSFGHSRAHYAIGLAGLVCALPLFFEVAIVLLISVAFSMARHTGTNLVKLVIPLFAGVAAAAAFLVPGPAPMLLASQMNADFGWMILIGLCAAIPGMIIAGPLWGNFISRYVELHIPDDISEPHLGEGKMPSFGFSLSLILLPLVLVGLKTIAARFVPEGSTAYEWFEFIGHPFTAILVACLVAIYGLAMRQGMPKDKVMEICGHALQPAGIILLVIGAGGVFKQVLVDSGVGPALGEALTGMGLPIAITCFVLAAAVRIIQGSATVACLTAVGLVMPVIEQLNYSGAQMAALSICIAGGSIVVSHVNDAGFWLFGKFTGATEAETLKTWTMMETILGTVGAIVGMIAFQLLS [P0AC96] | 6.49 h | 5.93 h | 5.18 h | 12.9 h |  |  |  |  |  |  |  | 
2 | MIDYEVLRFIWWLLVGVLLIGFAVTDGFDMGVGMLTRFLGRNDTERRIMINSIAPHWDGNQVWLITAGGALFAAWPMVYAAAFSGFYVAMILVLASLFFRPVGFDYRSKIEETRWRNMWDWGIFIGSFVPPLVIGVAFGNLLQGVPFNVDEYLRLYYTGNFFQLLNPFGLLAGVVSVGMIITQGATYLQMRTVGELHLRTRATAQVAALVTLVCFALAGVWVMYGIDGYVVKSTMDHYAASNPLNKEVVREAGAWLVNFNNTPILWAIPALGVVLPLLTILTARMDKAAWAFVFSSLTLACIILTAGIAMFPFVMPSSTMMNASLTMWDATSSQLTLNVMTWVAVVLVPIILLYTAWCYWKMFGRITKEDIERNTHSLY [P0ABK2] |  | 6.72 h | 6.61 h | 12.9 ± 0.13 h | > 8 h | 5.91 h | 5.4 h | 6.31 h | 12.2 ± 1.9 h | 6.45 ± 0.17 h |  | 
3 | MFAVSSRRVLPGFTLSLGTSLLFVCLILLLPLSALVMQLAQMSWAQYWEVITNPQVVAAYKVTLLSAFVASIFNGVFGLLMAWILTRYRFPGRTLLDALMDLPFALPTAVAGLTLASLFSVNGFYGEWLAKFDIKVTYTWLGIAVAMAFTSIPFVVRTVQPVLEELGPEYEEAAETLGATRWQSFCKVVLPELSPALVAGVALSFTRSLGEFGAVIFIAGNIAWKTEVTSLMIFVRLQEFDYPAASAIASVILAASLLLLFSINTLQSRFGRRVVGH | 6.57 h | 4.7 h | 4.83 ± 0.59 h | 10.2 ± 1.2 h | 7.77 h | 4.58 h | 2.4 h | 4.2551 ± 0.0035 h |  |  | 3.13 ± 0.25 h | 7.05 h
4 | MENNEIQSVLMNALSLQEVHVSGDGSHFQVIAVGELFDGMSRVKKQQTVYGPLMEYIADNRIHAVSIKAYTPAEWARDRKLNGF [P0A9W6] | 3.86 ± 0.21 h | 4.35 ± 0.56 h | 4.09 ± 0.043 h | 10.8 ± 1.1 h | 5.36 ± 0.32 h | 5.87 ± 1.2 h | 4.08 ± 0.3 h | 4.5 h | 7.378 ± 0.011 h | 4.79 ± 0.25 h | 3.11 ± 0.42 h | 7.8 ± 0.37 h
5 | MIEADRLISAGTTLPEDVADRAIRPKLLEEYVGQPQVRSQMEIFIKAAKLRGDALDHLLIFGPPGLGKTTLANIVANEMGVNLRTTSGPVLEKAGDLAAMLTNLEPHDVLFIDEIHRLSPVVEEVLYPAMEDYQLDIMIGEGPAARSIKIDLPPFTLIGATTRAGSLTSPLRDRFGIVQRLEFYQVPDLQYIVSRSARFMGLEMSDDGALEVARRARGTPRIANRLLRRVRDFAEVKHDGTISADIAAQALDMLNVDAEGFDYMDRKLLLAVIDKFFGGPVGLDNLAAAIGEERETIEDVLEPYLIQQGFLQRTPRGRMATTRAWNHFGITPPEMP [P0A812] | 3.14 ± 0.2 h | 1.8 ± 0.077 h | 2.08 ± 0.048 h | 4.66 ± 0.42 h |  | 2.7 ± 0.38 h | 1.63 ± 0.079 h | 3.53 ± 0.55 h | 2.46 ± 0.039 h | 3.14 ± 0.27 h | 2.35 ± 0.51 h | 5.83 ± 0.95 h
6 | MELLSEYGLFLAKIVTVVLAIAAIAAIIVNVAQRNKRQRGELRVNNLSEQYKEMKEELAAALMDSHQQKQWHKAQKKKHKQEAKAAKAKAKLGEVATDSKPRVWVLDFKGSMDAHEVNSLREEITAVLAAFKPQDQVVLRLESPGGMVHGYGLAASQLQRLRDKNIPLTVTVDKVAASGGYMMACVADKIVSAPFAIVGSIGVVAQMPNFNRFLKSKDIDIELHTAGQYKRTLTLLGENTEEGREKFREELNETHQLFKDFVKRMRPSLDIEQVATGEHWYGQQAVEKGLVDEINTSDEVILSLMEGREVVNVRYMQRKRLIDRFTGSAAESADRLLLRWWQRGQKPLM [P0AG14] | 6.18 ± 0.14 h | 5.91 ± 0.15 h | 6.076 ± 0.021 h | 11.4 ± 1.4 h | 6.52 ± 0.91 h | 6.12 ± 0.27 h | 6.07 ± 0.87 h |  | 14.1 ± 1.8 h | 5.6 ± 0.61 h | 3.11 ± 0.099 h | 11.3 ± 0.26 h
7 | MAFQVKIHQIRAFVEVARQGSIRGASRMLNMSQPALSKSIQELEEGLAAQLFFRRSKGVTLTDAGESFYQHASLILEELRAAQEDIRQRQGQLAGQINIGMGASISRSLMPAVISRFHQQHPQVKVRIMEGQLVSMINELRQGELDFTINTYYQGPYDHEFTFEKLLEKQFAIFCRPGHPAIGARSIKQLLDYSWTMPTPHGSYYKQLSELLDDQAQTPQVGVVCETFSACISLVAKSDFLSKLPEEMGCDPLHGQGLVMLPVSEILPKAAYYLIQRRDSRQTPLTASLITQFRRECGYLQS |  |  | 0.867 h |  |  | 2.39 ± 0.088 h |  |  | 0.857 h |  |  | 
8 | MNKIFSSHVMPFRALIDACWKEKYTAARFTRDLIAGITVGIIAIPLAMALAIGSGVAPQYGLYTAAVAGIVIALTGGSRFSVSGPTAAFVVILYPVSQQFGLAGLLVATLLSGIFLILMGLARFGRLIEYIPVSVTLGFTSGIGITIGTMQIKDFLGLQMAHVPEHYLQKVGALFMALPTINVGDAAIGIVTLGILVFWPRLGIRLPGHLPALLAGCAVMGIVNLLGGHVATIGSQFHYVLADGSQGNGIPQLLPQLVLPWDLPNSEFTLTWDSIRTLLPAAFSMAMLGAIESLLCAVVLDGMTGTKHKANSELVGQGLGNIIAPFFGGITATAAIARSAANVRAGATSPISAVIHSILVILALLVLAPLLSWLPLSAMAALLLMVAWNMSEAHKVVDLLRHAPKDDIIVMLLCMSLTVLFDMVIAISVGIVLASLLFMRRIARMTRLAPVVVDVPDDVLVLRVIGPLFFAAAEGLFTDLESRLEGKRIVILKWDAVPVLDAGGLDAFQRFVKRLPEGCELRVCNVEFQPLRTMARAGIQPIPGRLAFFPNRRAAMADL [P0AFR2] | 6.21 ± 0.72 h | 5.51 h | 6.43 ± 1.8 h | 7.77 h | 5.99 ± 0.062 h | 5.97 ± 0.73 h | 5.82 ± 0.46 h | 6.39 ± 0.93 h | > 16 h |  | 1.95 h | > 16 h
